Results as given in patent US6303361, “Human glandular kallikrein-1 (hK2)” (Orion-Yhtyma Oyj, dated 2001).

Assays:
α1-antitrypsin = α1-antitrypsin (Homo sapiens (Human), UniProt P01009); assay: complex formation with serpin (method not described)
α1-antichymotrypsin = α1-antichymotrypsin (Homo sapiens (Human), UniProt P01011); assay: as above

binding result (α1-antitrypsin): no binding | binding result (α1-antichymotrypsin): no binding
B1: recombinant Trp226-hK2 protein (Trp226-hK2 having the N-terminal dipeptide extension Ser-Arg, from insect cells) (enzyme)
chain: not shown
